Source: patent publication US20250339531A1, “DUX4 POLYPEPTIDES AND NUCLEIC ACIDS FOR TREATING INFLAMMATORY AND AUTOIMMUNE CONDITIONS” (Fred Hutchinson Cancer Center, priority 2021, published 2025)

Key:
Test in all cases: anti-FLAG co-IP LC-MS, exp 3, +IFNg +Dox
[1] = target: 26S proteasome non-ATPase regulatory subunit 2 (Homo sapiens) (UniProt Q13200)
[2] = target: 40S ribosomal protein S3a (Homo sapiens) (UniProt P61247)
[3] = target: 40S ribosomal protein S8 (Homo sapiens) (UniProt P62241)
[4] = target: 60S acidic ribosomal protein P0 (Homo sapiens) (UniProt P05388)
[5] = target: 60S ribosomal protein L13 (Homo sapiens) (UniProt P26373)
[6] = target: 60S ribosomal protein L18 (Fragment) (Homo sapiens) (UniProt Q07020)
[7] = target: 60S ribosomal protein L18a (Homo sapiens) (UniProt Q02543)
[8] = target: 60S ribosomal protein L29 (Homo sapiens) (UniProt P47914)
[9] = target: 60S ribosomal protein L4 (Homo sapiens) (UniProt P36578)
[10] = target: 60S ribosomal protein L7a (Homo sapiens) (UniProt P62424)
[11] = target: AP-2 complex subunit alpha-1 (Homo sapiens) (UniProt O95782)
[12] = target: AP-2 complex subunit beta (Homo sapiens) (UniProt P63010)
Sequence of AP-2 complex subunit beta (Homo sapiens) (P63010 2-937 limits assumed, one chain of several): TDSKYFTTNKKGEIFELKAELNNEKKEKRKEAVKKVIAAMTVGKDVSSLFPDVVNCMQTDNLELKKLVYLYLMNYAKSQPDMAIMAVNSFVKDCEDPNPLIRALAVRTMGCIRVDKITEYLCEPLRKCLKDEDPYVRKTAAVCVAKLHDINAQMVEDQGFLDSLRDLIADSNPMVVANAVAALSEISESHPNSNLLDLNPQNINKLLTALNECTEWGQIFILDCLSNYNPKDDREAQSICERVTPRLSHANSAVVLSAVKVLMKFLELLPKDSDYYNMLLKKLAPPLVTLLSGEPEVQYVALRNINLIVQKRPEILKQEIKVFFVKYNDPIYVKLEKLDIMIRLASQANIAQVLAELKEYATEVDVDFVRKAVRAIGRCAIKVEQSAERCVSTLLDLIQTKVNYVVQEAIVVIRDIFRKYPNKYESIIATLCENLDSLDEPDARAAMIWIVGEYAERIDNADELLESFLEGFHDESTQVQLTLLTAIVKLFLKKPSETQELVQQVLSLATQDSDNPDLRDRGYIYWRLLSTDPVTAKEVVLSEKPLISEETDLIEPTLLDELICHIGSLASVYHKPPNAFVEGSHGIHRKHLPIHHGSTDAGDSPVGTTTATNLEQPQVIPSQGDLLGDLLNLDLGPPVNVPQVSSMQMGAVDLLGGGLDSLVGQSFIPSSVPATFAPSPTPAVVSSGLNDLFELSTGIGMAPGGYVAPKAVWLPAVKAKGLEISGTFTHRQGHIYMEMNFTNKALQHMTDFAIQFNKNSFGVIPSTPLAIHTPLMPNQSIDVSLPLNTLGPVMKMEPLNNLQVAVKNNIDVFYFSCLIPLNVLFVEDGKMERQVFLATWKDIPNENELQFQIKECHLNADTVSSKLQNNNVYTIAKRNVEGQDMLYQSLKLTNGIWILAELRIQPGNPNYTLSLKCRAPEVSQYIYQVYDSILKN

[13] = target: Aspartyl/asparaginyl beta-hydroxylase (Homo sapiens) (UniProt Q12797)
[14] = target: Elongation factor 1-alpha 1 (Homo sapiens) (UniProt P68104)
[15] = target: Elongation factor 1-gamma (Homo sapiens) (UniProt P26641)
[16] = target: Fibronectin (Homo sapiens) (UniProt P02751)
Sequence of Fibronectin (Homo sapiens) (P02751 32-2477 limits assumed): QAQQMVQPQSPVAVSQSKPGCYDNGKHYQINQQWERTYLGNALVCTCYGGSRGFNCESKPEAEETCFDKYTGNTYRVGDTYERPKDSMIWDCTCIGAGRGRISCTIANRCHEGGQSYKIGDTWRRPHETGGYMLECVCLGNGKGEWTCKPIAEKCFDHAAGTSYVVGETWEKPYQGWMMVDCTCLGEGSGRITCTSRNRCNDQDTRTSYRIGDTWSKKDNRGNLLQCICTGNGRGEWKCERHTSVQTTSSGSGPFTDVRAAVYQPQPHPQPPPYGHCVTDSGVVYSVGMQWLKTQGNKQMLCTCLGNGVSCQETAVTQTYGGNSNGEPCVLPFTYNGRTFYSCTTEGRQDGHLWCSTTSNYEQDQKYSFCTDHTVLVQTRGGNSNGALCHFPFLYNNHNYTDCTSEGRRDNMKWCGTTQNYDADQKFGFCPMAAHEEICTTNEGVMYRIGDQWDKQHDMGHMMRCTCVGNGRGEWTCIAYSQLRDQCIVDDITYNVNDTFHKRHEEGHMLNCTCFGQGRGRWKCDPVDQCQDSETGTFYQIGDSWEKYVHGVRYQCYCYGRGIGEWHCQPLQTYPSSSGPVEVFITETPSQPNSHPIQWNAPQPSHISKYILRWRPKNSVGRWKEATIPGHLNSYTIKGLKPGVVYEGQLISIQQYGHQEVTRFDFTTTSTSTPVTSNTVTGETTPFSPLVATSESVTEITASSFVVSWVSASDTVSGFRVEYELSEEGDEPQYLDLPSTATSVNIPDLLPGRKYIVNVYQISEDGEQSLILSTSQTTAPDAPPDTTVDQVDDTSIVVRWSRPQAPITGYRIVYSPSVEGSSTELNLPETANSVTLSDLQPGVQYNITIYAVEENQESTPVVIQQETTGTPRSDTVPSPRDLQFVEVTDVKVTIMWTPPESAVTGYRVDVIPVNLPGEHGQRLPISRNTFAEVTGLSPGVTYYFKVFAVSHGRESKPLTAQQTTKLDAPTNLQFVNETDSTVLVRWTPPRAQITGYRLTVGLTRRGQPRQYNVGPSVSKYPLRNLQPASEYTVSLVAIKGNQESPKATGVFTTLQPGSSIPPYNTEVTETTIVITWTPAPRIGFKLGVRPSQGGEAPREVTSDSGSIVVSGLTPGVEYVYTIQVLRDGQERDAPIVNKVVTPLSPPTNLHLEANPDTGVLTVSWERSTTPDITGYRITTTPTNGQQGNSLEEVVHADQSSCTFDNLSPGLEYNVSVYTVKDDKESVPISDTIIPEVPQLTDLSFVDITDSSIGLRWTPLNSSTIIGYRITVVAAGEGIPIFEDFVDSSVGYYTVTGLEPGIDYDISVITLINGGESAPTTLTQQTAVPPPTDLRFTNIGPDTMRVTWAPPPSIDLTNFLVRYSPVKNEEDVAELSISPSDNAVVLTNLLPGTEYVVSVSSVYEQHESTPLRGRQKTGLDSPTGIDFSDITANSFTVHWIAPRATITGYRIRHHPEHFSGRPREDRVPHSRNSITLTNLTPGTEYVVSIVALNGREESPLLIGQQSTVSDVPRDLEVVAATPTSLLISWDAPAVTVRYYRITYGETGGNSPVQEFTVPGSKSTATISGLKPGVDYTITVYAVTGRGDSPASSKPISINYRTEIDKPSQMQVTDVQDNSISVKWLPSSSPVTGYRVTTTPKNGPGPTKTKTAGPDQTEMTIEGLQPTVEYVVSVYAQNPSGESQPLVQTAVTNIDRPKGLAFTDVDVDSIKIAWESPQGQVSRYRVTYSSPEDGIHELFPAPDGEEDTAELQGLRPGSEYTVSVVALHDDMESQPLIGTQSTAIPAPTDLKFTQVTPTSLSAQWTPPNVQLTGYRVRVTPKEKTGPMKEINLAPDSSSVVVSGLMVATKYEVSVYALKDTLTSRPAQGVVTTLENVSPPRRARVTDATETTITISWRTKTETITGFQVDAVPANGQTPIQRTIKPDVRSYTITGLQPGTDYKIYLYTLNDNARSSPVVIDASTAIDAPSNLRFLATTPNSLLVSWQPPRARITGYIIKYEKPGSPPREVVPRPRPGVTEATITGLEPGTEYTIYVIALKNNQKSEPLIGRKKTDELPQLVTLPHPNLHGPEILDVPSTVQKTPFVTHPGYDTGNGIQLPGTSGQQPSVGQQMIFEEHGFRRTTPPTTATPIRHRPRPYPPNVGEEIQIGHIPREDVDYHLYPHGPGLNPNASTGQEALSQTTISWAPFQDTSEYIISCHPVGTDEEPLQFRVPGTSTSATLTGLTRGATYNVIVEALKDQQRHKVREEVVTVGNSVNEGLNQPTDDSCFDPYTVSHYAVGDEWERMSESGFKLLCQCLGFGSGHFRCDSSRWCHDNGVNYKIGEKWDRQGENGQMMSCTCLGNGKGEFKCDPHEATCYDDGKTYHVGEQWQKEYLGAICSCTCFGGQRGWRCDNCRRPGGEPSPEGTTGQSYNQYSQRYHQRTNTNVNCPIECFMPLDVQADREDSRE

[17] = target: Filamin-A (Homo sapiens) (UniProt P21333)
[18] = target: Heat shock cognate 71 kDa protein (Homo sapiens) (UniProt P11142)
Sequence of Heat shock cognate 71 kDa protein (Homo sapiens) (P11142 2-646 limits assumed): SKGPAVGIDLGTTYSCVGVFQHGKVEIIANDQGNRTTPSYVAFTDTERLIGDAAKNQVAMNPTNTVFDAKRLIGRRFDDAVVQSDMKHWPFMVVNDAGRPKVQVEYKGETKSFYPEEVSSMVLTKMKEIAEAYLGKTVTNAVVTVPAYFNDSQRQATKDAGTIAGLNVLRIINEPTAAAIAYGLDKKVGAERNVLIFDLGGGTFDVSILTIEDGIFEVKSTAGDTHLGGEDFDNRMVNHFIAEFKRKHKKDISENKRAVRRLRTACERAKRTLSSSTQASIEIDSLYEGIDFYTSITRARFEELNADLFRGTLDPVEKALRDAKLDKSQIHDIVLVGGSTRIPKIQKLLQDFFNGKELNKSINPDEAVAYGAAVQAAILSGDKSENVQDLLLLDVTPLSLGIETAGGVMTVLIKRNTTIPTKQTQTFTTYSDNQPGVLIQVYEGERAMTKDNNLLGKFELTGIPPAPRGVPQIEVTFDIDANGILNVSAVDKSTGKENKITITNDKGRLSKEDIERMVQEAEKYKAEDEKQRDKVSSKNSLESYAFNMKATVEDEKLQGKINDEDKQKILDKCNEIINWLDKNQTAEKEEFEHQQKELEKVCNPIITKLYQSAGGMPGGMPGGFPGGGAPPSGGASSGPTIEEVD

[19] = target: Heat shock protein HSP 90-alpha (Homo sapiens) (UniProt P07900)
[20] = target: Heat shock protein HSP 90-beta (Homo sapiens) (UniProt P08238)
[21] = target: Histone acetyltransferase type B catalytic subunit (Homo sapiens) (UniProt O14929)
[22] = target: Myosin regulatory light chain 12A (Homo sapiens) (UniProt J3QRS3)
[23] = target: Myosin-9 (Homo sapiens) (UniProt P35579)
[24] = target: Plasminogen activator inhibitor 1 (Homo sapiens) (UniProt P05121)
[25] = target: Polypyrimidine tract-binding protein 1 (Homo sapiens) (UniProt P26599)
[26] = target: Probable ubiquitin carboxyl-terminal hydrolase FAF-X (Homo sapiens) (UniProt Q93008)
[27] = target: Procollagen-lysine,2-oxoglutarate 5-dioxygenase 2 (Homo sapiens) (UniProt O00469)
[28] = target: Protease serine 2 preproprotein (Homo sapiens) (UniProt A6XMV9)
[29] = target: Protein disulfide-isomerase A3 (Fragment) (Homo sapiens) (UniProt P30101)
[30] = target: Reticulon-4 (Homo sapiens) (UniProt Q9NQC3)
[31] = target: Ribonuclease inhibitor (Homo sapiens) (UniProt P13489)
[32] = target: Spectrin alpha chain, non-erythrocytic 1 (Homo sapiens) (UniProt Q13813)
[33] = target: Tubulin beta-2A chain (Homo sapiens) (UniProt Q13885)
[34] = target: Ubiquitin carboxyl-terminal hydrolase 7 (Homo sapiens) (UniProt Q93009)
[35] = target: Vimentin (Homo sapiens) (UniProt P08670)
Sequence of Vimentin (Homo sapiens) (P08670 2-466 limits assumed): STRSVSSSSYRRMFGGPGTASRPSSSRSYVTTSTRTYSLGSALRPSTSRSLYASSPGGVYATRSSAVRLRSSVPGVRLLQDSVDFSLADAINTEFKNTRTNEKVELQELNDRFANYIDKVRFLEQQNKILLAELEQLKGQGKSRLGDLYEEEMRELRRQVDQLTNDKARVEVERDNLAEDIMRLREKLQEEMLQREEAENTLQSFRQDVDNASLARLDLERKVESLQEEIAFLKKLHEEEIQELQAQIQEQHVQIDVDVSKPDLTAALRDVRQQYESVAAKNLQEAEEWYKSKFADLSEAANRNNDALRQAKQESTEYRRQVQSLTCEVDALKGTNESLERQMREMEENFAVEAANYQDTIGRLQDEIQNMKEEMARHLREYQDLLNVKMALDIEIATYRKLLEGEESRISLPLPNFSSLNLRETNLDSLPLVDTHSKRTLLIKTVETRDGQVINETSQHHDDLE

[36] = target: WD repeat-containing protein 1 (Homo sapiens) (UniProt O75083)
Sequence of WD repeat-containing protein 1 (Homo sapiens) (O75083 whole entry): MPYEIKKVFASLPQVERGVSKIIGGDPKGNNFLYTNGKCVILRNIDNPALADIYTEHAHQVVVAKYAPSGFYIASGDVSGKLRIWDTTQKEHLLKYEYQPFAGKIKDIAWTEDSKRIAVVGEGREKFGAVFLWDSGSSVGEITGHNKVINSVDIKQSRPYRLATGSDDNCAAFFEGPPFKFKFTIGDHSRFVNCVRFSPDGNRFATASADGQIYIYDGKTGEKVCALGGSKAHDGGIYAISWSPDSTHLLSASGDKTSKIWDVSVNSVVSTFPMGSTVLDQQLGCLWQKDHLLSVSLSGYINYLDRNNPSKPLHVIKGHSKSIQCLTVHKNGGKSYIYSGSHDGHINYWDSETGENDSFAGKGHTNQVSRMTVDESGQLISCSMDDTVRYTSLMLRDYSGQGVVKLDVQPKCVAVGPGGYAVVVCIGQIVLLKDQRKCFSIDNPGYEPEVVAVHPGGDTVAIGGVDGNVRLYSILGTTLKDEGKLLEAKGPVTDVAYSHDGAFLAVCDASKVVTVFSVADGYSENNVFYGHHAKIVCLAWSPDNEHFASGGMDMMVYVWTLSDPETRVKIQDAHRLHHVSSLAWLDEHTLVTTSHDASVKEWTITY

i3XFLAG-NLS-CTDaa154-424
PSMs [1]: 3 PSMs | PSMs [2]: 5 PSMs | PSMs [3]: 6 PSMs | PSMs [4]: 5 PSMs | PSMs [5]: 7 PSMs | PSMs [6]: 5 PSMs | PSMs [7]: 2 PSMs | PSMs [8]: 2 PSMs | PSMs [9]: 34 PSMs | PSMs [10]: 5 PSMs | PSMs [11]: 31 PSMs | PSMs [12]: 26 PSMs | PSMs [13]: 9 PSMs | PSMs [14]: 21 PSMs | PSMs [15]: 6 PSMs | PSMs [16]: 48 PSMs | PSMs [17]: 12 PSMs | PSMs [18]: 54 PSMs | PSMs [19]: 9 PSMs | PSMs [20]: 14 PSMs | PSMs [21]: 3 PSMs | PSMs [22]: 3 PSMs | PSMs [23]: 242 PSMs | PSMs [24]: 3 PSMs | PSMs [25]: 2 PSMs | PSMs [26]: 5 PSMs | PSMs [27]: 3 PSMs | PSMs [28]: 2 PSMs | PSMs [29]: 2 PSMs | PSMs [30]: 7 PSMs | PSMs [31]: 3 PSMs | PSMs [32]: 10 PSMs | PSMs [33]: 61 PSMs | PSMs [34]: 6 PSMs | PSMs [35]: 45 PSMs | PSMs [36]: 2 PSMs
